Source: paper PMC8432352

Legend:
Experiment in all cases: SDS-PAGE without heating
[1] = target: Tail spike protein 1 (TSP1) of Salmonella phage S117 (Salmonella phage S117)
[2] = target: Tail spike protein 2 (TSP2) of Salmonella phage S117 (Salmonella phage S117)
[3] = target: Tail spike protein 3 (TSP3) of Salmonella phage S117 (Salmonella phage S117)
[4] = target: Tail spike protein 4 (TSP4) of Salmonella phage S117 (Salmonella phage S117)

Work on “Tail spike protein 1 (TSP1) of Salmonella phage S117 (natural protein)” yielded a stoichiometry N [1] of 3.

“Tail spike protein 2 (TSP2) of Salmonella phage S117 (natural protein)” was tested, and the stoichiometry N [2] was 3.

“Tail spike protein 3 (TSP3) of Salmonella phage S117 (natural protein)” showed a stoichiometry N [3] of 3.

“Tail spike protein 4 (TSP4) of Salmonella phage S117 (natural protein)” showed a stoichiometry N [4] of 3.
